Reference: patent US20110195069A1

What was measured:
[1] = biological target: factor D/VDA (human factor D mutant V113E, D116E, A118P) (human) (UniProt P00746); test: ELISA: wells coated with recombinant factor D protein at 0.5 µg/ml, serially diluted MAb 166-32, HRP goat anti-mouse IgG (Fc), OD450
[2] = biological target: factor D/Pighu (pig-human factor D hybrid) (pig; human) (UniProt P00746); test: as above
[3] = biological target: dog factor D (in dog serum) (dog); test: cell-based or functional assay; details: scale: times less effective than for human factor D
[4] = biological target: baboon factor D (in baboon serum) (baboon); test: cell-based or functional assay
[5] = biological target: human factor D (purified from human serum, or as present in human serum/plasma) (human) (UniProt P00746); test: cell-based or functional assay
[6] = biological target: human factor D (purified from human serum, or as present in human serum/plasma) (human) (UniProt P00746); test: ELISA: wells coated with purified human factor D, serially diluted MAb, HRP goat anti-mouse IgG (Fc), OD450

EC50 (read off the curve) [1]: 0.02 µg/mL
EC50 (read off the curve) [2]: 0.02 µg/mL
EC50 (read off the curve) [6]: 0.008 µg/mL
Substance: MAb 166-32 (antibody)
neutralization of dog factor D in hemolytic assays, compared to human factor D [3]: > 10
inhibition of alternative complement hemolytic activity (rabbit red blood cells) of plasma samples from baboons given 5 mg/kg Mab 166-32, 18 hours after CPB [4]: 79.3%
alternative pathway hemolytic activity of plasma from extracorporeal circuits of human whole blood (molar ratio MAb : factor D) [5]: 1.5
inhibition of factor D dependent alternative pathway hemolysis of unsensitized rabbit RBCs (factor D depleted human serum supplemented with purified factor D) [5]: 0.3 µg/mL
molar ratio (MAb 166-32 to factor D) for inhibition of factor D dependent hemolysis (molar ratio MAb 166-32 : factor D) [5]: 0.5
